Data taken from US20240390531A1 (IMAGINAB, published 2024).

How the values were obtained:
human FAP on cells = target: T1, human FAP on cells (human, UniProt Q12884 1-760); assay: flow cytometry on U87-MG glioblastoma cells (FIG. 58B)
T1 construct: whole, on cells; The cell line is named under assay; also called HT1080 human FAP cells; HT1080-hFAP cells
Experimental: As disclosed herein, the binding of constructs to cellular targets was assessed using flow cytometry. Stock of 2.5× serial dilution of minibodies were created starting from a concentration of 100 nM in […] FACS buffer (PBS 2% FBS). Cells were added to a Corning V-bottom polypropylene cell culture plate at 200,000 cells/well. The cells were centrifuged at 100 rpm for 3 minutes and the supernatant discarded. The minibody dilution series were transferred to the plate containing cell pellets and incubated for 1 hr at 4° C. The plate was then washed 3 times with FACS buffer at 200 µl/well, discarding supernatant after each wash by centrifugation at 1000 rpm. 50 µl/well of detection antibody R&D AlexaFluor-647 Goat anti Human (H+L) was added at a 1:100 dilution in FACS buffer and incubated at 4° C. 1 hr. The plate was washed 3 times with FACS buffer at 200 µl/well, discarding supernatant after each wash by centrifuging at 1000 rpm. Cells were then fixed by adding 100 µl of 1% paraformaldehyde in PBS and incubating at room temperature for 15 minutes. 100 µl of PBS were added to each well and the plate was analyzed by flow cytometry using the allophycocyanin fluorescence setting.

[1] = target: T2, purified human FAP antigen (human, UniProt Q12884 26-760, limits assumed); assay: ELISA, plate coated with purified human FAP antigen (FIG. 56A-56C)
Experimental: (§1) Binding kinetics of the novel antigen binding constructs to a purified human FAP antigen was assessed using ELISA. For this assay, a 96 well ELISA plate was coated with the human-FAP antigen diluted to a concentration of 2 mg/mL in coating buffer (0.05M sodium carbonate-bicarbonate buffer, pH 9.6). 100 μl of this coating solution was added to each well in the plate and incubate at 4° C. overnight. The plate was washed 3 times with 300 μl per well of washing buffer (PBS with 0.05% Tween-20). After the last wash, the plate was blocked by adding to each well 200 μl of blocking buffer (PBS with 1% BSA) warmed to room temperature. The plate was then incubated at room temperature for 1 hour under gentle agitation. After blocking, the plate was washed 3 times with 300 μl per well of washing buffer. Dilution samples for each minibody were created by making 2.5× dilutions from a starting sample at 100 ng/mL, or 250 ng/mL, or 1000 ng/mL or 3000 ng/mL in 100 μL sample buffer (PBS with 1% BSA). The dilution samples were transferred to the assay plate and incubated at room temperature for 1 hour under gentle agitation. The plate was then washed 3 times with 300 μl per well of washing buffer.
(§2) Detection was performed by adding 100 μl of HRP labeled detection secondary antibody at an appropriate dilution and incubating the plate at room temperature for 1 hour under gentle agitation. The plate was then washed 3 times with 300 μl per well of washing buffer. For color development, 100 μl of TMB substrate regent, pre-warmed to room temperature, was added to the plate and incubated in the dark at room temperature for 15 min. The reaction was then stopped by adding 100 μl of 650 nm stop solution to the plate and mixed for 1 min at room temperature under gentle agitation. The plate is recorded by reading OD at 650 nm in a plate reader within 20 min after terminating the reaction.

FAP = FAP (UniProt Q12884 26-760, limits assumed); assay: binding kinetics, method not stated (FIG. 42A)
[2] = target: T2, purified human FAP antigen; assay: ELISA, plate coated with purified human FAP antigen (FIG. 56D-56E)
Experimental: as §1, §2

[3] = target: T2, purified human FAP antigen; assay: ELISA, plate coated with purified human FAP antigen (FIG. 91A)
Experimental: as §1

Binder | Kd (human FAP on cells) | Kd [1] | Kd [2] | other results
IAB16M1-12 (other, also called Sibrotuzumab minibody; the control) DIVMTQSPDSLAVSLGERATINCKSSQSLLYSRNQKNYLAWYQQKPGQPPKLLIFWASTRESGVPDRFSGSGFGTDFTLTISSLQAEDVAVYYCQQYFSYPLTFGQGTKVEIKGSTSGGGSGGGSGGGGSSQVQLVQSGAEVKKPGASVKVSCKTSRYTFTEYTIHWVRQAPGQRLEWIGGINPNNGIPNYNQKFKGRVTITVDTSASTAYMELSSLRSEDTAVYYCARRRIAYGYDEGHAMDYWGQGTLVTVSSEPKSSDKTHTCPPCPPCGGGSSGGGSGGQPREPQVYTLPPSREEMTKNQVSLTCLVKGFYPSDIAVEWESNGQPENNYKTTPPVLDSDGSFFLYSKLTVDKSRWQQGNVFSCSVMHEALHNHYTQKSLSLSPG | ~0.1 nM | ~0.1 nM | – | Kd (FAP): 3.34 nM; koff (FAP): 0.00257 s⁻¹; kon (FAP): 769000 M⁻¹ s⁻¹
IAB16M2-29 (other) QVQLVQSGAEVKKPGASVKVSCKASGYTFTEYTIHWVRQAPGQRLEWIGGINPNNGIPNYNQKFKGRVTITVDTSASTAYMELSSLRSEDTAVYYCARRRIAYGYDEGHAMDYWGQGTLVTVSSGSTSGGGSGGGSGGGGSSDIVMTQSPDSLAVSLGERATINCKSSQSLLYSRNQKNYLAWYQQKPGQPPKLLIFWASTRESGVPDRFSGSGSGTDFTLTISSLQAEDFAVYYCQQYFSYPLTFGQGTKVEIKEPKSSDKTHTCPPCPPCGGGSSGGGSGGQPREPQVYTLPPSREEMTKNQVSLTCLVKGFYPSDIAVEWESNGQPENNYKTTPPVLDSDGSFFLYSKLTVDKSRWQQGNVFSCSVMHEALHNHYTQKSLSLSPG | – | – | ~1 nM | –
IAB16C1-20 (other) DIVMTQSPDSLAVSLGERATINCKSSQSLLYSRNQKNYLAWYQQKPGQPPKLLIFWASTRESGVPDRFSGSGFGTDFTLTISSLQAEDVAVYYCQQYFSYPLTFGQGTKVEIKSGGGGQVQLVQSGAEVKKPGASVKVSCKTSRYTFTEYTIHWVRQAPGQRLEWIGGINPNNGIPNYNQKFKGRVTITVDTSASTAYMELSSLRSEDTAVYYCARRRIAYGYDEGHAMDYWGQGTLVTVSSGGCPPCPPC | – | – | ~1 nM | –
IAB16C1-38 (other) DIVMTQSPDSLAVSLGERATINCKSSQSLLYSRNQKNYLAWYQQKPGQPPKLLIFWASTRESGVPDRFSGSGSGTDFTLTISSLQAEDFAVYYCQQYYSYPLTFGQGTKVEIKSGGGGQVQLVQSGAEVKKPGASVKVSCKASGYTFTEYTIHWVRQAPGQRLEWIGGINPNNGIPNYNQKFKGRVTITVDTSASTAYMELSSLRSEDTAVYYCARRRIAYGYDEGHAMDYWGQGTLVTVSSGGCPPCPPC | – | – | ~1 nM | –
IAB16C3-21 (other) DIVMTQSPDSLAVSLGERATINCKSSQSLLYSRNQKNYLAWYQQKPGQPPKLLIFWASTRESGVPDRFSGSGFGTDFTLTISSLQAEDVAVYYCQQYFSYPLTFGQGTKVEIKGGGSGGGGQVQLVQSGAEVKKPGASVKVSCKTSRYTFTEYTIHWVRQAPGQRLEWIGGINPNNGIPNYNQKFKGRVTITVDTSASTAYMELSSLRSEDTAVYYCARRRIAYGYDEGHAMDYWGQGTLVTVSSGGCPPCPPC | – | – | ~1 nM | –
IAB16M1-8 (other) EIVLTQSPGTLSLSPGERATLSCRASQSVTSSYLAWYQQKPGQAPRLLINVGSRRATGIPDRFSGSGSGTDFTLTISRLEPEDFAVYYCQQGIMLPPTFGQGTKVEIKGSTSGGGSGGGSGGGGSSEVQLLESGGGLVQPGGSLRLSCAASGFTFSSYAMSWVRQAPGKGLEWVSAIIGSGASTYYADSVKGRFTISRDNSKNTLYLQMNSLRAEDTAVYYCAKGWFGGFNYWGQGTLVTVSSEPKSSDKTHTCPPCPPCGGGSSGGGSGGQPREPQVYTLPPSREEMTKNQVSLTCLVKGFYPSDIAVEWESNGQPENNYKTTPPVLDSDGSFFLYSKLTVDKSRWQQGNVFSCSVMHEALHNHYTQKSLSLSPG | ~0.1 nM | ~0.1 nM | – | –
9A2 (other, also called murine 9A2 construct) chain 1: EVQLQQSGPELVKPGASVKMSCKASGYTFTSYVMHWLKQKPGQGLEWIGYINPHNDGTKYNEKFKGKATLTSDKSSSTAYMELSSLTSEDSAVYYCARWGIYYGYGAWFAYWGQGTLVTVSA chain 2: DIVMTQSQKFMSTSVGDRVSVTCKASQNVGTYVAWYQQKPGQSPKALIYSASNRYSGVPDRFTGSGSGTDFTLTISNVQSEDLAEYFCQQYNTYPYTFGGGTKLEIK | – | – | – | Kd [3]: ~1 nM
IAB16M1-54 (other) DIQMTQSPSSLSASVGDRVTITCKASQNVGTYVAWFQQKPGKAPKSLIYSASNRYSGVPSRFSGSGSGTDFTLTISSLQPEDFATYYCQQYNTYPYTFGQGTKLEIKGSTSGGGSGGGSGGGGSSQVQLVQSGAEVKKPGASVKVSCKASGYTFTSYVMHWVRQAPGQGLEWMGYINPHNDGTKYAQKFQGRVTMTRDTSTSTVYMELSSLRSEDTAVYYCARWGIYYGYGAWFAYWGQGTLVTVSSEPKSSDKTHTCPPCPPCGGGSSGGGSGGQPREPQVYTLPPSREEMTKNQVSLTCLVKGFYPSDIAVEWESNGQPENNYKTTPPVLDSDGSFFLYSKLTVDKSRWQQGNVFSCSVMHEALHNHYTQKSLSLSPG | – | – | – | Kd [3]: ~1 nM
IAB16M2-55 (other) QVQLVQSGAEVKKPGASVKVSCKASGYTFTSYVMHWVRQAPGQGLEWMGYINPHNDGTKYAQKFQGRVTMTRDTSTSTVYMELSSLRSEDTAVYYCARWGIYYGYGAWFAYWGQGTLVTVSSGSTSGGGSGGGSGGGGSSDIQMTQSPSSLSASVGDRVTITCKASQNVGTYVAWFQQKPGKAPKSLIYSASNRYSGVPSRFSGSGSGTDFTLTISSLQPEDFATYYCQQYNTYPYTFGQGTKLEIKEPKSSDKTHTCPPCPPCGGGSSGGGSGGQPREPQVYTLPPSREEMTKNQVSLTCLVKGFYPSDIAVEWESNGQPENNYKTTPPVLDSDGSFFLYSKLTVDKSRWQQGNVFSCSVMHEALHNHYTQKSLSLSPG | – | – | – | Kd [3]: ~1 nM

More lines, main results first:

Kd (human FAP on cells) | Kd [1] | Kd [2] | Binder | other results
~0.1 nM | ~0.1 nM | – | IAB16M2-13 (other, also called Sibrotuzumab minibody) QVQLVQSGAEVKKPGASVKVSCKTSRYTFTEYTIHWVRQAPGQRLEWIGGINPNNGIPNYNQKFKGRVTITVDTSASTAYMELSSLRSEDTAVYYCARRRIAYGYDEGHAMDYWGQGTLVTVSSGSTSGGGSGGGSGGGGSSDIVMTQSPDSLAVSLGERATINCKSSQSLLYSRNQKNYLAWYQQKPGQPPKLLIFWASTRESGVPDRFSGSGFGTDFTLTISSLQAEDVAVYYCQQYFSYPLTFGQGTKVEIKEPKSSDKTHTCPPCPPCGGGSSGGGSGGQPREPQVYTLPPSREEMTKNQVSLTCLVKGFYPSDIAVEWESNGQPENNYKTTPPVLDSDGSFFLYSKLTVDKSRWQQGNVFSCSVMHEALHNHYTQKSLSLSPG | –
~0.1 nM | ~0.1 nM | – | IAB16M2-9 (other) EVQLLESGGGLVQPGGSLRLSCAASGFTFSSYAMSWVRQAPGKGLEWVSAIIGSGASTYYADSVKGRFTISRDNSKNTLYLQMNSLRAEDTAVYYCAKGWFGGFNYWGQGTLVTVSSGSTSGGGSGGGSGGGGSSEIVLTQSPGTLSLSPGERATLSCRASQSVTSSYLAWYQQKPGQAPRLLINVGSRRATGIPDRFSGSGSGTDFTLTISRLEPEDFAVYYCQQGIMLPPTFGQGTKVEIKEPKSSDKTHTCPPCPPCGGGSSGGGSGGQPREPQVYTLPPSREEMTKNQVSLTCLVKGFYPSDIAVEWESNGQPENNYKTTPPVLDSDGSFFLYSKLTVDKSRWQQGNVFSCSVMHEALHNHYTQKSLSLSPG | –
